The values below come from US20230099801A1, “RESTORATION OF T CELL ACTIVITY VIA THE CD39/CD73 AXIS” (INNATE PHARMA, priority 2017, published 2023).

“Also recorded” adds a separate entry of the source.

The target of test [1] is T1, cell-membrane bound CD39 (CD39-expressing cells) (Homo sapiens, UniProt P49961).
T1 construct: host or cells: CD39-expressing cells
T1 sequence (P49961 1-510): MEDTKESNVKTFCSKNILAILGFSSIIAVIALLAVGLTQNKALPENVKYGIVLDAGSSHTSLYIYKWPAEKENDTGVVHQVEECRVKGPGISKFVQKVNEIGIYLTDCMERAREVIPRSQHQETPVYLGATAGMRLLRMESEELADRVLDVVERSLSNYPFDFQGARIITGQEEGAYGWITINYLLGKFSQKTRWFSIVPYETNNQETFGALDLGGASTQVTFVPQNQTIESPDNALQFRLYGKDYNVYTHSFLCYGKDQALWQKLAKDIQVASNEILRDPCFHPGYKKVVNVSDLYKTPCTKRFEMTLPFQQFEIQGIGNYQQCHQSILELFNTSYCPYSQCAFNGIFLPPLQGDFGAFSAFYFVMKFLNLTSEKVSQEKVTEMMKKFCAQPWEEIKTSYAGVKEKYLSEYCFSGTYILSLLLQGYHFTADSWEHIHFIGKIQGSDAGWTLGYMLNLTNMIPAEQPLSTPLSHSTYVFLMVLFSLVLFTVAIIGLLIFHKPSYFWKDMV
Kind of test: Inhibition of the enzymatic activity of cellular CD39, Cell Titer Glo. The class given is cell-based. As to the method:
The ability of an antibody to inhibit cells expressing CD39 protein can be tested by detecting ATP after incubating test antibody with cells (e.g., Ramos cells, cells transfected with CD39, etc.). See, e.g., Example 1. Cells can be incubated for 1 hour at 37° C. with test antibody. Cells are then incubated with 20 μM ATP for 1 additional hour at 37° C. Plates are centrifuged for 2 min at 400 g and cell supernatant are transferred in a luminescence microplate (white wells). CTG is added to the supernatant and emitted light is quantified after a 5 min incubation in the dark using an Enspire™ luminometer. Anti-CD39 antibody efficacy is determined by comparing emitted light in presence of antibody with ATP alone (maximal light emission) and ATP together with cells (minimal light emission).
The inhibition of the CD39 enzymatic activity in CD39-expressing cells by antibodies was evaluated using Cell Titer Glo™ (Promega, reference G7571) that allows assessment of ATP hydrolysis through use of a reagent that generates a luminescent signal proportional to the amount of ATP present. […] Plates were centrifuged for 2 min at 400 g and 50 μl cell supernatant are transferred in a luminescence microplate (white wells). 50 μl CellTiter-Glo® Reagent (CTG) was added to the supernatant and emitted light was quantified after a 5 min incubation in the dark using a Enspire™ luminometer. […]

Test [2] concerns the target T2, human Ramos lymphoma cells (Homo sapiens, UniProt P49961).
T2 construct: host or cells: Ramos human lymphoma cells
T2 sequence (P49961 1-510): T1 sequence (P49961 1-510)
Kind of test: Antibody titration on Ramos cells by flow cytometry. Format: binding. As to the method:
Cells were incubated with various concentration of unlabeled anti-CD39 antibody from 30 μg/ml to 5×10^−4 μg/ml, for 30 minutes at 4° C. After washes, cells were incubated with Goat anti-mouse H+L labeled secondary antibody for 30 min at 4° C.

In test [3] the target is T3, CD39 expressed by Ramos human lymphoma cells (Homo sapiens, UniProt P49961).
T3 construct: host or cells: Ramos human lymphoma cells
T3 sequence (P49961 1-510): T1 sequence (P49961 1-510)
Kind of test: Inhibition of cellular CD39 ATPase activity in Ramos cells. Format: cell-based. As to the method:
(§1) The inhibition of the CD39 enzymatic activity in CD39-expressing cells by antibodies was evaluated using Cell Titer Glo™ (Promega, reference G7571) that allows assessment of ATP hydrolysis through use of a reagent that generates a luminescent signal proportional to the amount of ATP present. The assay was thus designed to permit assessment of the inhibition of ATP hydrolyzed by CD39 in the cell culture supernatant. Briefly, 5×10^4 Ramos human lymphoma cells, 5×10^3 human CD39-, cynomolgus CD39—and mouse CD39-expressing CHO cells, were incubated 1 hour at 37° C. with anti-CD39 antibodies from 30 μg/ml to 5×10^−4 μg/ml. Cells were then incubated with 20 μM ATP for 1 additional hour at 37° C. Plates were centrifuged for 2 min at 400 g and 50 μl cell supernatant are transferred in a luminescence microplate (white wells). 50 μl CellTiter-Glo® Reagent (CTG) was added to the supernatant and emitted light was quantified after a 5 min incubation in the dark using a Enspire™ luminometer. Anti-CD39 antibody efficacy was determined by comparing emitted light in presence of antibody with ATP alone (maximal light emission) and ATP together with cells (minimal light emission).

The next test has as its system CD8 T cells. Kind of test: T cell proliferation assay in presence of added ATP, CD8 T cells. Format: cell-based, human. As to the method:
Peripheral blood from healthy donors was obtained from EFS, and mononuclear cells were isolated on a Ficoll gradient. Lymphocytes were further enriched on a 52% Percoll gradient by collection of the cell pellets and stained with a Cell Trace dye (Thermofisher) following the TDS provided by the manufacturer. […] Inhibition of T cell proliferation was achieved by addition of ATP (200 μM). T cell proliferation and ability of Abs to block immune suppressive effect of AMP were assessed by flow cytometry by quantifying the dye dilution in the proliferating T cell subset.
Percentage of proliferating T cells vs. anti-CD73 Ab concentration is plotted in graphs using GraphPad Prism software.

For test [4], the target named is T4, Human CD39-L3 (NTPDase3, ENTPD3) (Homo sapiens, UniProt O75355).
T4 sequence (O75355 1-529): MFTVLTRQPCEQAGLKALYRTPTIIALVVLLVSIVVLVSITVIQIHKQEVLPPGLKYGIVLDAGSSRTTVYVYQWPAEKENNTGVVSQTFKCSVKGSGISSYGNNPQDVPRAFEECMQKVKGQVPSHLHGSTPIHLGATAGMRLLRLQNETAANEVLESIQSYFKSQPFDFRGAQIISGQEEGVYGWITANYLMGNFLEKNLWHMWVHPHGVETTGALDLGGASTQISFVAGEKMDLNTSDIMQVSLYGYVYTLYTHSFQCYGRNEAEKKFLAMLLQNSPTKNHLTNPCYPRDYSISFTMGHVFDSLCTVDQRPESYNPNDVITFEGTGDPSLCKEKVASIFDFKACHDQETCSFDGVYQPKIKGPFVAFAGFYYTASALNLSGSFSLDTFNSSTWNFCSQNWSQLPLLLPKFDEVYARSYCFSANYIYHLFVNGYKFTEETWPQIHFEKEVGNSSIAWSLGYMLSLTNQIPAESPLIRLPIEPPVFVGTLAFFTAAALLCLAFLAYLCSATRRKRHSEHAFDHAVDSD
The test is described as follows: ELISA titration on CD39-L3. Format: binding. As for the experimental part: (§2) Wells were washed in TBS Tween 20, and further saturated 2H at RT in TBS Blocking buffer. Dose range concentration of primary antibody was incubated in TBS blocking buffer for 2h at RT. Wells were washed in TBS Tween 20. […] Optical density was measured on Enspire™ at OD=450.

In test [5] the test system is cynomolgus CD39 (CHO-cyCD39). The test is described as follows: Inhibition of cellular CD39 ATPase activity in CHO-cyCD39 cells. Format: cell-based, cynomolgus (Macaca fascicularis). As to the method:
as §1

Another test concerns the target T5, human CD39 (Homo sapiens, UniProt P49961).
T5 sequence (P49961 1-510): T1 sequence (P49961 1-510)
The test is described as follows: ELISA titration on recombinant human CD39. Format: binding. As to the method: as §2

The target in a further test is T6, human CD39 (CHO-huCD39) (Homo sapiens, UniProt P49961).
T6 construct: expressed in transfected cells; host or cells: CHO cells
T6 sequence (P49961 1-510): T1 sequence (P49961 1-510)
Kind of test: Inhibition of cellular CD39 ATPase activity in CHO-huCD39 cells. The class given is cell-based. As for the experimental part: as §1

B1: I-394: anti-CD39 antibody, VH SEQ ID NO: 6, VL SEQ ID NO: 7; heavy/light chains SEQ ID NOS: 52 and 53 (antibody)
heavy: EVQLQQSGPELVKPGASVKMSCKASGYTFTDYNMHWVKQSHGRTLEWIGYIVPLNGGSTFNQKFKGRATLTVNTSSRTAYMELRSLTSEDSAAYYCARGGTRFAYWGQGTLVTVSAASTKGPSVFPLAPSSKSTSGGTAALGCLVKDYFPEPVTVSWNSGALTSGVHTFPAVLQSSGLYSLSSVVTVPSSSLGTQTYICNVNHKPSNTKVDKRVEPKSCDKTHTCPPCPAPEAEGAPSVFLFPPKPKDTLMISRTPEVTCVVVDVSHEDPEVKFNWYVDGVEVHNAKTKPREEQYNSTYRVVSVLTVLHQDWLNGKEYKCKVSNKALPSSIEKTISKAKGQPREPQVYTLPPSREEMTKNQVSLTCLVKGFYPSDIAVEWESNGQPENNYKTTPPVLDSDGSFFLYSKLTVDKSRWQQGNVFSCSVMHEALHNHYTQKSLSLSPGK
light: DIVLTQSPASLAVSLGQRATISCRASESVDNFGVSFMYWFQQKPGQPPNLLIYGASNQGSGVPARFRGSGSGTDFSLNIHPMEADDTAMYFCQQTKEVPYTFGGGTKLEIKRTVAAPSVFIFPPSDEQLKSGTASVVCLLNNFYPREAKVQWKVDNALQSGNSQESVTEQDSKDSTYSLSSTLTLSKADYEKHKVYACEVTHQGLSSPVTKSFNRGEC
modifications: Chimeric homo sapiens mus musculus
Take B1: the “inhibition of the enzymatic activity of cellular (cell-membrane bound) CD39” value in test [1] is given as “substantially fully blocks; also recorded: inhibit”. Further, the “potency and maximal inhibition of cellular CD39 compared to BY40” value in test [1] (FIG. 2A) is “greater potency and maximal inhibition; also recorded: greater potency at all concentrations as well as greater maximal inhibition”. In addition, the “binding to Ramos lymphoma cells” value in test [2] is on record as “bound; also recorded: binds”. Also, in test [3], the “blocking CD39 enzymatic activity in tumor (Ramos) cells” value is listed as “highly potent” and the “potency in Ramos cells compared to all other antibodies tested” value is listed as “greater potency”. Also, in test [3] (Ramos cells), the “maximum inhibition achieved, cellular CD39” value amounted to 81.6%. Moreover, in the test on CD8 T cells (added ATP 200 μM), the “potentiation of anti-CD73 antibodies in restoring CD8 T cell proliferation” value is given as “strongly potentiation”. Also, the “enhancement of CD8 T cell proliferation, alone without anti-CD73” value in the test with CD8 T cells (concentrations of 0.1 μg/ml and 1 μg/ml, added ATP) was “remarkable enhancement”. In test [4], the “binding to CD39-L3 in ELISA” value is recorded as “not to any of the human isoforms”. Moreover, the “blocking CD39 enzymatic activity in cells expressing cynomolgus CD39” value in test [5] is “blocks; also recorded: highly potent”. Also, in the test with human CD39, the “binding to human CD39 in ELISA” value is on record as “bound; also recorded: binds”. In addition, in the test with human CD39 (CHO-huCD39), the “blocking CD39 enzymatic activity in cells expressing human CD39” value is reported as “blocks; also recorded: highly potent”.
